Laboratory results reported in the NTF2 design screens of Basanta et al. (2020).

Assay: protease stability score; higher = more stable; yeast display proteolysis, trypsin and chymotrypsin;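 note: relative to predicted unfolded state with 0 unfolded-like and 1 meaning tenfold more protease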

Row | Sequence | protease stability score
1 | DETEEDARHFVELWRRDMITGDEDRIKEMADPNVRVIIGDKNLHGREDMTEVLRHLRIHRVNVHSIHVQGDWVHITTEVDGRIGDKRHELEVHILTRKVNGRWQLQTLEIG | 1.12
2 | DETEEDVREAIRKMLHSTRTGDEEDNKKLMDPNVQIDIDGVKYHGWETWVEHMRRVDHLRMKIHSIEVQGNKLIVDGELDQRFNGVQLRFRSELILVKIDGRWLVHSIHFK | 1.17
3 | DETEEEARHVFELIIEYHLTGDWDKWLRMFDPHVKLVVNGRDNHGREHAVHRLKEFLRQWRIHDVEVKSVDLQGDKVRVDGRLDGIVNGVREKTEVTLSLIVVDGKIKSHEVRIH | 1.51
4 | DETEEEVREAIEKFIQDLHTGNWHAYNEMLDPNVRVIVGDKHLHGRERVLEWEEEFMRKVKGATYRIDHMDVIDGRINLHFRITIGDKSREFNVHSLKINGQWHTKEVRVNIL | 1.06
5 | DETEEEVRKFVEESVKQNNTGNEDFAKRLADPNARFEQGDKELHGREEMRRVLVELWFEDYRIERLHVQGNKVEVEVVVHGVVNGKHQEVRVIIILLKINGRWVFRDVTVK | 0.648
6 | DETEEIAKKVVEYWIREFMTGNEESLLELIDPNAKSDILQGDKELHIVGRESARLFIKRFKGQRMEITHLEVHVQGDKVHVRLHVDIIYNGRKFHVISHVDWEKIDGRWIIHQEKFVFE | 1.71
7 | DETEELFEEIVKIFIEAMETGDWRLLKRMVDPHVRSIQGDFHLHGRESMLELWLHIRIDRITLTDARVRIQGEKVHVDLRVKTNGIINGRRKDTQTHVHLHLDKVNGVWSITITNIIFE | 0.553
8 | DETEEMAEEVLRRFLEINRTGDWKDLHRLFDPNVRIVVNGQELHGMELYLKHEIKTRRKLGAKVEEVRLKHLDSQGEKIISEVEIIFDINGQEIRLDVRVIMNKIDGKWTIRELRIH | 1.08
9 | DETEEMARLFNEEVRHSWKTGNEEHIKRLIDPHAKVHIGDKELHGRERATETIRKLGVKHLEIDDIHIIDGRVHVDGTLDVDGQSFRVEIILSKVNGRWLNEEIRIH | -0.344
10 | DETEEMIKRHMDKLFRAVRTGDWDQFVKLADPNTRIEVGDFHYHGWERFSEFMSELRIHRFRMHDSEVVNGRVHLHTEEDGEVNGKRRESRVHRVLLKIDGRWHLHSVHIE | 0.909
11 | DETEEMVREMAHLFLHLWITGDEEIIKHLLDPSVRLHINGVDNHGRENALEVVHRILKELRLRHLHIHEVHIINGVIHNNIRLDIEQGDKRRILEIEVILVVWNGKIKSIEVRLK | 1.51
12 | DETEERTRKAIKLSLEVLRTGDERVISEMADPHVRLDFNGRQLHGREEFVHHIVRFFEEAGINYLHIEDWDVFNGVIIEHVRWNFNGREVEVEIIANKVNGKWLIKEFRIK | 1.07
13 | DETEEVMERVIQMLAHATHTGDWKDIRRLMDPNVKININGREIIGREELIRYLRELRETYHHFELKHVEVQGDKIIVHGRTLIRIEIGDKEIHLDSDVRYILWKVDGRWIMESIHIV | 2.18
14 | DETEHHAREMAELLLHVILTGDEHLMERLIDPDVKLHSFFNGRQFHRIGMEELKRYLEEWRREIRLKDVRIRQFEVQGDKFRLDMEVEGNINGRDNVTKTELIIITVNGRLHEIDIRIE | 2.1
15 | DETEKHILKLAEMLVRDWITGNEENIMELLDPHAKIDIHIDGRYLEFHGRELITRELIRHYEEIRIHYHFRESESVGEKASINMDVEVHIGDKIVRSHTEVILDIVNGRVRNIHIRWK | 2.23
16 | DETEKHVKHLTELWMHAWLTGDEDLLEHLLDPHTRVIIFYGDKNYHFHGRESIHIRFYELGAKHVRDFRIRDSKIQGNKLLLNGEENGLVNGRQTETEVRIELVWIDGRVHSIVVRIH | 1.3
17 | DETEKIVRSVVHMFLHLMHTGDWEELMKLADPNTIVHFENHRKHGREDAIRHIIEFILRADHIEVHLDEIRIQGDKVYLNLRLILDINGRRIETRVHIILVKINGRWRIHSMDVE | 1.4
18 | DETENSLRTMLHRLLDSIRTGDFRTVDDLADPHVKIDVGDKHIHGREIYRKIVLQADHVESRFHLHDIHNIGNWAHVDGRLINHEVVDGQKIDLDLRIEIIVTKIDGKWTIESVRFE | 1.46
19 | DETERDVREAVRIWNEDVETGNEESLLRLIDPHVRLVINGQTFHGMESMLEVLNEFLKHIRVEHIEVKRIEIQGDKAIIDTNMDIEIDGKRKQKKTTLIIRKFNGRWHLSLVEIR | 1.86
20 | DETERLAEKWYRHWLHLILTGDWELLEKQADPHYKFHVGDKVFIGRELASEWLRHLYEHIRIDDMKITHLDLQGDKINNDGRMRVTQGEKHKEVSVDLHMIVVNGKMHEIRIRTH | 1.45
21 | DETERWAHLMLKLMQRYQETGDEDSLLELMDPEAKIDINGKEIHGREEWREHRYHHLRELGHTNIDVRVHLRRMHNVGDKANVRGELRININGKKLSVDVIIIILKIDGRWVIESLRLE | 0.736
22 | DETETAKRFALEMLLHTLRTGDEEDKLRMLDPNARLVIGDKEFWGWKEFKKFVEKESRELRIQDSRIQHVELQGDKLHLDSVIIGQVNGVTVELKVEFVMNKIDGKWRVEEIIVR | 1.34
23 | DETFEDAHKLFKKFWEDMRTGDESEIEKLLDPNDKVHQGEKQTHGREEASRTHQEDIRRVDVFERVHIDHIETQGDFAIIDSTWIIHFDGKRFTRKVIIFLVKINGQWKFHSITMR | 0.71
24 | DETFEWANIAIEHLIHSARTGDEKTFEEMADPDTRFLYNGQIIIGREEVNKMLSTVLREIRLEDVQVKRIEVYDGRVHSDMTRQGEFDGRHFTSKTEFIVHKVDGRWSIKEIRIT | 0.89
25 | DETFKEQEKLIERLERVERTGDWKEWERLADPNVRMDIDGVEIIGMEMVTEFILREMRHLGVTRIRIEIKEIRVIGDKIRIDGQIQQGNKETRFILIVSKIDGRWRLEESYVH | 1.06

Row | Sequence | protease stability score
26 | DETHEEHNRFAEEYVHALHTGDEDRLRELMDPNVRFILIIDGKEVRLHGWELLLRVIREFWERFKNIRIFIRDIDLQGEKIRLETEVNVDGVDEHWRINMVVVNGRIKSLIIEQR | 2.32
27 | DETHELIEFLLKEMIEAWKTGNEEKIMELFDPNVRLDIGDKHYHGREEVVRAMHEYRRRLGAKHITLHDHSVVNGVIHIDTVVNQGDKEVTIHIHIHIVDGKIKRIEIRLK | 2.07
28 | DETHEMNEEFLRLLIHAWRTGDEDLLLHLADPNVKVNVGEFHHHGREKFSEWLKHIRFDDMRVHDMRIFDGVAHFITESDVTFNGRRRRVHVRIVVEKVNGKWRLKLFEEE | 2.66
29 | DETHKDAERALEIEIRDFVTGDFKSMQRLADPNVKIEVGDKHWHGREEFEKLVKEVIDQFPNMRLDVRVTHWELQGEKLIMRTEVNEHFDGVTFKHETHIIIRKINGRWFLTSVHIQ | 1.36
30 | DETHKLLEDLTRLFWELTHTGDEEIVEELADPHVRSEINGKERHGREEHVKAWREWRIERMTLRSVSVINGQMSIDGEIVLKIGDKRIETRIEIRIHIVDGVMKSVKIHLE | 0.937
31 | DETHRDMEEALRLFVRLLETGNEEILSKLVDPHVKIDFENHQHIGMEDWMKFMHHIRLDSMRIDDFKLIGDKARSDTTLDGNVNGRHFKFKTWIVAQKVDGRWLEHSVEYR | 0.885
32 | DETHVQMERFIEEHIKSHITGDEDYLRENIDPEARVVIDGQTYHGWKAIKDAIDQWRVTDMRIRHVRVQGEKVDIHGRLHVDVNGRNIDLEVRIIVTKVDGRWVVDQLIFN | 1.16
33 | DETKDDSDWAVELWEKLFKTGDEHLHERLADPHTRKEVGDKEFHGRELILKQFVEFVEKVKNIQLEFTHVKEQGEKVEMDTTLRIDGVRIRTKMIALKIDGVWLVKIIHIE | 0.964
34 | DETKEAFDRAIEKLSRWMFTGDEDKVDHLMDPDVRIEQGDKELHGMEDARRYLTEIRVKVRDMKITHMRIYDGRIDIDGETHLEVKVGDKHLHIDTRVYIDSYKVDGRWFFHEIRIK | 0.98
35 | DETKEAIDRLFEVIHRMMITGDEHEFMKLVDPNVKVIQGEKIYHGREVIVNMLREILKWAGVENIQSHLDPERVHIQGDKLLVRGRLELRIGDKSEERDVEFVVVKVDGRWLIRVWKIE | 2.74
36 | DETKEDTNRWIEHELRALKTGNWKEQFKNLDPNVRMHLHVGDKNKDLHGREKVTTELRRLFEEFGIKHIHLTNFEVQGDKIHLIMHIEVDGRHIELHLIVTKIDGKWHMESIEMHFR | 0.866
37 | DETKEHVHNWMELVVHWYETGDEEEILKNADPNVRTIFNGVDYHGWEHLEEILKKIRHFFKNARVEIERIEIQGDKLILDVNVEINGQRDTLHIHVKVVDGVMKNLEIRHG | 1.59
38 | DETKEKVRIALELLETLHRTGDEDKFLELADPHYQLHINGQTVIGRETIYELLVRFLHHLGATSEVRIRSVDWQGDKIIVDMRLHFRVGDKSFEIQVHIYILKVNGKWLIESIEIR | 1.68
39 | DETKEQSDEFIRIWVKARRTGDEHKLRRLIDPNVRVLINGKDLIGMDRALEIIEMFRKEFGIDHMHFTVRHVDIFNGVAISDFKVEINFNGREHEFTTHLVNLKIDGVWHTHSMEFH | 0.546
40 | DETKEYAKEMFEILKESLETGDWKKIRHLADPNVRLHIGEFEHHGWKEFIHFFREFLHHLRLEDVETKHIEVQGDKMILRTTLHLRQGDKSRDLDVIIIYRKIDGRWMLHSVEIR | 1.4
41 | DETKHHHDRLFEEEAKAIATGDWEKLKELLDPHVRFEVGNKEIHGMETVLEEIERDLKRLGVTKQEVRIVIDKVDIQGEKIVSDFTLRLHFDGVTIEHKVHVIEVKIDGRWLIQSIRIE | 1.53
42 | DETKQETDRLVKMMLHAITTGDEKFIHHLIDPNVRLEVGDKSFHGREDAFEMLRKEWEDLGVKVYKPETYKSQGDWVHFHGKEHVGDKEIELNIHIHVVDGKIKFIRIEIH | 1.2
43 | DETNKTLKEVFRELVHSLFTGDEERLTELADPHARFHQGEKELHGREEISKEMSRMIERADHVKIILTHMEVQGDKIIIEGHLEIRVDGRRIDVSTTLILHKVNGRWFITEIHII | 0.241
44 | DETQELAEEIVRKMIENWLTGNEEELHKMADPHVRVHINGVDLHGREVWEKWVHDELEKIPGIRREFELKRLEIYGDYIDIDGILILTFNGRKHTHKVRIHLHIVDGKLHRLEIRNK | 1.28
45 | DETREESYEFLWKLIHNWQTGNEDRLDELIDPHVRLVVGDKNHHGREELIELIREILERADHLRMRMRHFRVQGDKAEVDTRLQMEIGDKSIDTETHVRIIVVDGRVKYLEYEIK | 0.459
46 | DETREEVYEMAVRILENEITGDWKKLYDLVDPDTRLDINGRHVIGREEMIKLFEWWLKHIRIKEIRLSHVEAVNGKADLKSNVHGTIDGVEHDVRRTIHIDIVDGRVKRIEVRTR | 1.29
47 | DETREHTEHIMNIILHALHTGDEHLIRDMIDPHVRWELIIDGQTHNHIGRDEWEKLLEELGIDRIEVILKRFRIFENHSEVKGTIHINGKDADVVIYILVINGKIKEIRIIHV | 2.19
48 | DETREIAIKMIELWIHAVKTGDEDRMTELLDPNALLIIGDKKIHGRENLLRFWKRIDHHHLRHIEIKEITFFNGQVEDDGIVEEELRVNGREFEIDSRVLYILKKVDGRWIMRTIEVK | 1.88
49 | DETRELLDRLWERLVKALRTGDEDHVHDMLDPHVRIEIGDKILHGREALEVLWKRIDHISIHDFKLKRERRFENRIEVDGEVDGIVRIDGRENRHVTDTHYILVKIDGQWLIKTIHIK | 2.29
50 | DETRETLERFWHILVRAEKTGDERIFYEMLDPNAQLNVNGRTFHGREILVKIFHEWRVHDSEIREIDIQGDKVDMHVHSDIQVGDKRIRTDMRIIMVKIDGKWLIRTLKVE | 2.16
